Reference: patent publication US20210169936A1 (AFFIMED, published 2021)
Substitutions are numbered along the chain they refer to.

B1: EGFR-1/CD16-1 TandAb (CD16-1) (bispecific antibody)
chain: QVQLQESGPGLVKPSETLSLTCTVSGGSVSSGSYYWSWIRQPPGKGLEWIGYIYYSGSTNYNPSLKSRVTISVDTSKNQFSLKLSSVTAADTAVYYCARNPISIPAFDIWGQGTMVTVSSGGSGGSGGSSYVLTQPSSVSVAPGQTATISCGGHNIGSKNVHWYQQRPGQSPVLVIYQDNKRPSGIPERFSGSNSGNTATLTISGTQAMDEADYYCQVWDNYSVLFGGGTKLTVLGGSGGSQVQLVQSGAEVKKPGESLKVSCKASGYTFTSYYMHWVRQAPGQGLEWMGIINPSGGSTSYAQKFQGRVTMTRDTSTSTVYMELSSLRSEDTAVYYCARGSAYYYDFADYWGQGTLVTVSSGGSGGSGGSQPVLTQPPSVSVAPGKTARITCGGNNIGSKSVHWYQQKPGQAPVLVIYYDSDRPSGIPERFSGSNSGNTATLTISRVEAGDEADYYCQVWDTSSDHVLFGGGTKLTVLAAAGSHHHHHH
B2: scFv CD16A (CD16-7) (scFv)
scFv: QVQLVQSGAEVKKPGESLKVSCKASGYTFTNYYMHWVRQAPGQGLEWMGVIEPDGGRRTYAQKFQGRVTMTRDTSTSTVYMELSSLRSEDTAVYYCARGSAYYYDFADYWGQGTLVTVSSGGSGGSGGSGGSGGSGGSEIVLTQSPATLSLSPGERATLSCRGHQGVSGDVHWYQQKPGQAPRLLIYQANKRASGIPARFSGSGSGTEFTLTISSLEPEDFAVYYCQQWDNYSVTFGQGTKVEIKAAAGSHHHHHH
B3: BCMA-1/CD16-2 TandAb (CD16-2) (bispecific antibody)
chain: EVQLLESGGGLVQPGGSLRLSCAASGFTFSNYDMAWVRQAPGKGLEWVSSISTRGDITSYRDSVKGRFTISRDNSKNTLYLQMNSLRAEDTAVYYCARQDYYTDYMGFAYWGQGTLVTVSSGGSGGSGGSGGSSYVLTQPSSVSVAPGQTATISCGGHNIGSKNVHWYQQRPGQSPVLVIYQDNKRPSGIPERFSGSNSGNTATLTISGTQAMDEADYYCQVWDNYSVLFGGGTKLTVLGGSQVQLVQSGAEVKKPGESLKVSCKASGYTFTSYYMHWVRQAPGQGLEWMGAIEPMYGSTSYAQKFQGRVTMTRDTSTSTVYMELSSLRSEDTAVYYCARGSAYYYDFADYWGQGTLVTVSSGGSGGSGGSGGSAIQMTQSPSSLSASVGDRVTITCRASEDIYNGLAWYQQKPGKAPKLLIYGASSLQDGVPSRFSGSGSGTEFTLTISSLQPEDEATYYCAGPHKYPLTFGGGTKVEIK
B4: scFv CD16A (CD16-1) (scFv)
scFv: QVQLVQSGAEVKKPGESLKVSCKASGYTFTSYYMHWVRQAPGQGLEWMGIINPSGGSTSYAQKFQGRVTMTRDTSTSTVYMELSSLRSEDTAVYYCARGSAYYYDFADYWGQGTLVTVSSGGSGGSGGSGGSGGSGGSSYVLTQPSSVSVAPGQTATISCGGHNIGSKNVHWYQQRPGQSPVLVIYQDNKRPSGIPERFSGSNSGNTATLTISGTQAMDEADYYCQVWDNYSVLFGGGTKLTVLAAAGSHHHHHH
notes: also called LSIV21 scFv
B5: scFv CD16A (CD16-2) (scFv)
scFv: B4 scFv with I50A, N52E, S54M, G55Y
notes: also called CD16-2 scFv
B6: scFv CD16A (CD16-5) (scFv)
scFv: QVQLVQSGAEVKKPGESLKVSCKASGYTFSSYYMHWVRQAPGQGLEWMGAIEPRGVRISYAQKFQGRVTMTRDTSTSTVYMELSSLRSEDTAVYYCARGSAYYYDFADYWGQGTLVTVSSGGSGGSGGSGGSGGSGGSSYVLTQPSSVSVAPGQTARITCGGHNIGSTNVHWYQQKPGQAPVLVIYQDSKRPSGIPERFSGSNSGNTATLTISGTQAMDEADYYCQVWDNYSVQFGGGTKLTVLAAAGSHHHHHH
B7: scFv CD16A (CD16-3) (scFv)
scFv: QVQLVQSGAEVKKPGESLKVSCKASGYTFTNYYMQWVRQAPGQGLEWMGVINPGGGSTSYAQKFQGRVTMTRDTSTSTVYMELSSLRSEDTAVYYCARGSAYYYDFADYWGQGTLVTVSSGGSGGSGGSGGSGGSGGSSYVLTQPSSVSVAPGQTARITCGGHNIGSQSVHWYQQKPGQAPVLVIYQDSKRPSGIPERFSGSNSGNTATLTISGTQAMDEADYYCQVWDNYSVVFGGGTKLTVLAAAGSHHHHHH
B8: scFv CD16A (CD16-4) (scFv)
scFv: QVQLVQSGAEVKKPGESLKVSCKASGYSFSDFYIQWVRQAPGQGLEWMGIINPGGASTTYAQKFQGRVTMTRDTSTSTVYMELSSLRSEDTAVYYCARGSAYYYDFADYWGQGTLVTVSSGGSGGSGGSGGSGGSGGSSYVLTQPSSVSVAPGQTARITCGGYNIGRQSVHWYQQKPGQAPVLVIYQDSKRPSGIPERFSGSNSGNTATLTISGTQAMDEADYYCQVWDNYTVVFGGGTKLTVLAAAGSHHHHHH
B9: EGFR-1 scFv (scFv)
scFv: QVQLQESGPGLVKPSETLSLTCTVSGGSVSSGSYYWSWIRQPPGKGLEWIGYIYYSGSTNYNPSLKSRVTISVDTSKNQFSLKLSSVTAADTAVYYCARNPISIPAFDIWGQGTMVTVSSGGSGGSGGSGGSGGSGGSQPVLTQPPSVSVAPGKTARITCGGNNIGSKSVHWYQQKPGQAPVLVIYYDSDRPSGIPERFSGSNSGNTATLTISRVEAGDEADYYCQVWDTSSDHVLFGGGTKLTVLAAAGSHHHHHH
notes: also called scFv EGFR (EGFR-1); control scFv

Legend:
[1] = molecular target: human CD16A(48R, 158V) ECD fused to monomeric mFc.67 (human) (UniProt P08637); test: ELISA, coated antigen-mFc
[2] = molecular target: human CD16B(NA1) ECD, mature form (without propeptide), fused to monomeric Fc (human) (UniProt O75015); test: ELISA, coated antigen-mFc
[3] = molecular target: Cynomolgus CD16A fused to IgG Fc (cynomolgus; human) (UniProt Q8SPW2); test: ELISA, coated antigen-IgG Fc
[4] = molecular target: Human CD16A^(48R, 158F) fused to IgG Fc (human) (UniProt P08637); test: ELISA, coated antigen-IgG Fc
[5] = molecular target: Human CD16A^(48R, 158V) fused to IgG Fc (human) (UniProt P08637); test: ELISA, coated antigen-IgG Fc
[6] = molecular target: T1, CD16A on primary human NK cells (human, UniProt P08637); test: flow cytometry on primary human NK cells at 37 °C, without IgG; anti-His mAb and FITC goat anti-mouse IgG
T1 construct: full length, on the cell surface; also called FcgRIIIA on enriched human NK cells

[7] = molecular target: T1, CD16A on primary human NK cells; test: flow cytometry on primary human NK cells at 37 °C, with 10 mg/mL polyclonal human IgG; anti-His mAb and FITC goat anti-mouse IgG
[8] = molecular target: human CD16B ECD mutant H140Y fused to monomeric mFc.67 (human) (UniProt O75015); test: ELISA, coated antigen-mFc
[9] = molecular target: Human CD16B^H140Y fused to IgG Fc (human) (UniProt O75015); test: ELISA, coated antigen-IgG Fc
[10] = molecular target: human CD16A(48R, 158V) ECD fused to monomeric mFc.67 (human) (UniProt P08637); test: ELISA, coated antigen-mFc, Protein L-HRP
[11] = molecular target: human CD16B ECD mutant H140Y fused to monomeric mFc.67 (human) (UniProt O75015); test: ELISA, coated antigen-mFc, Protein L-HRP
[12] = molecular target: T2, mature ECD of CD16B(NA1) expressed on the CHO cell surface (human, UniProt O75015 17-200); test: binding to recombinant CHO cells
T2 construct: mature; not shown: membrane anchor: transmembrane domain of human EGFR or GPI anchor

[13] = molecular target: T3, propeptide-containing ECD of CD16B(NA1) expressed on the CHO cell surface (human, UniProt O75015 17-208); test: binding to recombinant CHO cells
T3 construct: extracellular domain; not shown: membrane anchor: transmembrane domain of human EGFR or GPI anchor

[14] = molecular target: T4, recombinant EGFR expressed on CHO cells (specificity control) (UniProt P00533 25-1210, limits assumed); test: flow cytometry, MFI in cell binding to recombinant CHO cells; antigen EGFRTM anchored
T4 construct: whole, on cells; also called control EGFR antigen

[15] = molecular target: T1, CD16A on primary human NK cells; test: flow cytometry on primary human NK cells at 37 °C, without IgG; anti-His mAb and FITC goat anti-mouse IgG; remark: listed apart in the source
Description: (§1) After the last staining step, the cells were washed again and resuspended in 0.2 mL of FACS buffer containing 2 μg/mL propidium iodide (PI) (Sigma, cat.: P4170) in order to exclude dead cells. […] For the calculation of KD, the equation for one-site-binding (hyperbola) was used.

[16] = molecular target: T1, CD16A on primary human NK cells; test: as above; remark: listed apart in the source
Description: as §1

[17] = molecular target: Human CD16B(NA1)^pr fused to IgG Fc (human) (UniProt O75015); test: ELISA, coated antigen-IgG Fc
[18] = molecular target: T5, huCD16A (48R,158V), EGFRTM anchored (human, UniProt P08637;P00533); test: flow cytometry, MFI in cell binding to recombinant CHO cells; antigen EGFRTM anchored
T5 construct: extracellular domain;transmembrane domain; Expressed on recombinant CHO cells; one member of the group m39

[19] = molecular target: T2, mature ECD of CD16B(NA1) expressed on …; test: as above
[20] = molecular target: T3, propeptide-containing ECD of CD16B(NA1) …; test: as above

Human CD16A^(48R, 158F) fused to IgG Fc (human), sequence (P08637 17-208 L66R): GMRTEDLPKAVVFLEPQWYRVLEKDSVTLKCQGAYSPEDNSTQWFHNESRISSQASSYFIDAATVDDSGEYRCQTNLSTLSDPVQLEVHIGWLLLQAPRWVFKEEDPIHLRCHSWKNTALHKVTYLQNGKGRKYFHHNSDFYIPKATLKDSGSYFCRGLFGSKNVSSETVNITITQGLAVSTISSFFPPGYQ
T2 sequence (O75015 other isoform, or with tags, fused parts or gaps): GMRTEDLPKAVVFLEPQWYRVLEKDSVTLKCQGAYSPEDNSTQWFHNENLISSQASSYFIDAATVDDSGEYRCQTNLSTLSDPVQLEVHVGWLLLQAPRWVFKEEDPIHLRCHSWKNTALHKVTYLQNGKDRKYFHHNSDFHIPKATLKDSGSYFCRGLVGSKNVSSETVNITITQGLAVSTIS
human CD16B ECD mutant H140Y fused to monomeric mFc.67 (human), sequence (O75015 other isoform, or with tags, fused parts or gaps H140Y H140Y): as the sequence (P08637 17-208 L66R) above, with S49N, R50L, I90V, G131D, F160V, F187S counted along it
Human CD16B^H140Y fused to IgG Fc (human), sequence (O75015 other isoform, or with tags, fused parts or gaps H140Y H140Y limits assumed): as the sequence (P08637 17-208 L66R) above, with S49N, R50L, I90V, G131D, F160V, F187S counted along it
Cynomolgus CD16A fused to IgG Fc (cynomolgus; human), sequence (Q8SPW2 17-208): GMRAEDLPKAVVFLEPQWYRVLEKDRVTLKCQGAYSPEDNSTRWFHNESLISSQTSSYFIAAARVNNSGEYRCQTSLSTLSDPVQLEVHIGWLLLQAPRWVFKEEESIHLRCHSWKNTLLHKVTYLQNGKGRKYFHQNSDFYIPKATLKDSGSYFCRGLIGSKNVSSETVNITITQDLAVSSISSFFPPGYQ
T1 sequence (P08637 17-254 limits assumed): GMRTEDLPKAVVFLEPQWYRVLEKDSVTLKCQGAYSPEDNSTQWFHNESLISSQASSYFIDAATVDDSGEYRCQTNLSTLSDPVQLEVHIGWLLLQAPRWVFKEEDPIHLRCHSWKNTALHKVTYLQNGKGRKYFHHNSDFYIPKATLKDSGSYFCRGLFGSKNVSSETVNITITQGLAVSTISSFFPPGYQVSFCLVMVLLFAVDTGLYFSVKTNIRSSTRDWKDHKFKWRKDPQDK
Human CD16A^(48R, 158V) fused to IgG Fc (human), sequence (P08637 17-208 L66R/F176V): as the sequence (P08637 17-208 L66R) above, with F160V counted along it
human CD16A(48R, 158V) ECD fused to monomeric mFc.67 (human), sequence (P08637 17-208 L66R/F176V): as the sequence (P08637 17-208 L66R) above, with F160V counted along it
T3 sequence (O75015 other isoform, or with tags, fused parts or gaps): as the sequence (P08637 17-208 L66R) above, with S49N, R50L, I90V, G131D, Y142H, F160V, F187S counted along it
T5 sequence (P08637 other isoform, or with tags, fused parts or gaps limits assumed): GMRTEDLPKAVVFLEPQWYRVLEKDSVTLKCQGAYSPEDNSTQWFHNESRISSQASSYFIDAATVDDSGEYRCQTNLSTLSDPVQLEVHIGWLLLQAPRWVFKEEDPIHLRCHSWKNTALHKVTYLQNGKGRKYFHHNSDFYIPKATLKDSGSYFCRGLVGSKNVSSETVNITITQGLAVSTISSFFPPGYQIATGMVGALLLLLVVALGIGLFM
Human CD16B(NA1)^pr fused to IgG Fc (human), sequence (O75015 other isoform, or with tags, fused parts or gaps limits assumed): as the sequence (P08637 17-208 L66R) above, with S49N, R50L, I90V, G131D, Y142H, F160V, F187S counted along it

Molecule | EC50 [1] | EC50 [3] | EC50 [4] | EC50 [5] | EC50 [9] | further results
scFv antibody comprising the variable heavy and light chain sequences of antibody 3G8 | 1 nM | 7.5 nM | 7.6 nM | 1.2 nM | – | EC50 [2]: 0.9 nM; EC50 (read off the curve) [6]: 3 nM; EC50 (read off the curve) [7]: 20 nM
B1 | 0.6 nM | – | – | – | – | EC50 [8]: 0.5 nM
B2 | – | 1.6 nM | 2.4 nM | 1.8 nM | 1.7 nM | –
B3 | – | – | – | – | – | EC50 [10]: 1.1 nM; EC50 [11]: 1.2 nM
B4 | – | 16.2 nM | 25.7 nM | 14.4 nM | 9.5 nM | binding result [12]: no binding; binding result [13]: no binding; binding result [14]: no binding; EC50 (read off the curve) [15]: ~40 nM
B5 | 1.6 nM | 2.5 nM | 2.8 nM | 1.5 nM | 1.2 nM | EC50 [8]: 1.3 nM; binding result [12]: no binding; binding result [13]: no binding; binding result [14]: no binding; EC50 (read off the curve) [16]: ~10 nM; EC50 (read off the curve) [7]: ~30 nM
B6 | – | 1.4 nM | 0.8 nM | 1.2 nM | 1.1 nM | EC50 [17]: 24.9 nM
B7 | – | 1.4 nM | 1.2 nM | 1.2 nM | 1.3 nM | –
B8 | – | 1.4 nM | 2.5 nM | 2.2 nM | 1.7 nM | –
B9 | – | – | – | – | – | binding result [18]: no binding; binding result [19]: no binding; binding result [20]: no binding
